Measurements taken from PMC3350567 (Structure(London, England:1993), 2012).

T1: CCT8, subunit of bovine TRiC/CCT (bTRiC) (Bos taurus, UniProt Q3ZCI9 1-548)
T1 sequence (looked up): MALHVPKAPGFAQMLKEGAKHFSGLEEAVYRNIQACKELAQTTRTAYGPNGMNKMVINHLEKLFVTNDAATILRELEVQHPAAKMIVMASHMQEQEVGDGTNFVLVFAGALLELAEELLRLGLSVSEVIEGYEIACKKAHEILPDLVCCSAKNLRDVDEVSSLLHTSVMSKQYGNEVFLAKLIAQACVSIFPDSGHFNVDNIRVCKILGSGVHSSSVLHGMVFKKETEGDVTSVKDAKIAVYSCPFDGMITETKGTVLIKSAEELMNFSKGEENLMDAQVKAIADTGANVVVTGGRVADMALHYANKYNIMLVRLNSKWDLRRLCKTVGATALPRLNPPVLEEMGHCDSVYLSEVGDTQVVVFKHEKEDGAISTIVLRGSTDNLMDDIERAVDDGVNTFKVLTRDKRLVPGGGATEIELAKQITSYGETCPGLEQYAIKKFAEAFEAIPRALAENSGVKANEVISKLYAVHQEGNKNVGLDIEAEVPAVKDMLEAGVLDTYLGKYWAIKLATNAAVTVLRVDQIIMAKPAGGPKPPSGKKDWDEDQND

B1: CCT3, subunit of bovine TRiC/CCT (bTRiC) (natural protein, Bos taurus, UniProt Q3T0K2 1-545, looked up)
chain: MMGHRPVLVLSQNTKRESGRKVQSGNINAAKTIADIIRTCLGPKSMMKMLLDPMGGIVMTNDGNAILREIQVQHPAAKSMIEISRTQDEEVGDGTTSVIILAGEMLSVAEHFLEQQMHPTVVISAYRKALDDMISTLKKISIPVDTSNRDTMLNIINSSITTKVISRWSSLACNIALDAVKTVQFEENGRKEIDIKKYARVEKIPGGIIEDSCVLRGVMINKDVTHPRMRRYIKNPRIVLLDSSLEYKKGESQTDIEITREEDFTRILQMEEEYIQQLCEDIIQLKPDVVITEKGISDLAQHYLMRANITAIRRVRKTDNNRIARACGARIVSRPEELREEDVGTGAGLLEIKKIGDEYFTFITECKDPKACTILLRGASKEILSEVERNLQDAMQVCRNVLLDPQLVPGGGASEMAVAHALTEKSKAMTGVEQWPYRAVAQALEVIPRTLIQNCGASTIRLLTSLRAKHTQENCETWGVNGETGTLVDMKELGIWEPLAVKLQTYKTAVETAVLLLRIDDIVSGHKKKGDDQSRQGGAPDAGQE
B2: CCT7, subunit of bovine TRiC/CCT (bTRiC) (natural protein, Bos taurus, UniProt Q2NKZ1 1-543, looked up)
chain: MMPTPVILLKEGTDSSQGIPQLVSNISACQVIAEAVRTTLGPRGMDKLIVDGRGKATISNDGATILKLLDVVHPAAKTLVDIAKSQDAEVGDGTTSVTLLAAEFLKQVKPYVEEGLHPQIIIRAFRTATQLAVNKIKEIAVTVKKEDKVEQRKLLEKCAMTALSSKLISQQKAFFAKMVVDAVMMLDDLLQLKMIGIKKVQGGALEESQLVAGVAFKKTFSYAGFEMQPKKYHNPMIALLNVELELKAEKDNAEIRVHTVEDYQAIVDAEWNILYDKLEKIHHSGAKVVLSKLPIGDVATQYFADRDMFCAGRVPEEDLKRTMMACGGSIQTSVNALSSDVLGRCQVFEETQIGGERYNFFTGCPKAKTCTIILRGGAEQFMEETERSLHDAIMIVRRAIKNDSVVAGGGAIEMELSKYLRDYSRTIPGKQQLLIGAYAKALEIIPRQLCDNAGFDATNILNKLRARHAQGGMWYGVDINTEDIADNFEAFVWEPAMVRINALTAASEAACLIVSVDETIKNPRSTVDASPAAGRGRGRGRLH
B3: CCT2, subunit of yeast TRiC/CCT (yTRiC) (natural protein, Saccharomyces cerevisiae, UniProt P39076 1-527, looked up)
chain: MSVQIFGDQVTEERAENARLSAFVGAIAVGDLVKSTLGPKGMDKLLQSASSNTCMVTNDGATILKSIPLDNPAAKVLVNISKVQDDEVGDGTTSVTVLSAELLREAEKLIDQSKIHPQTIIEGYRLASAAALDALTKAAVDNSHDKTMFREDLIHIAKTTLSSKILSQDKDHFAELATNAILRLKGSTNLEHIQIIKILGGKLSDSFLDEGFILAKKFGNNQPKRIENAKILIANTTLDTDKVKIFGTKFKVDSTAKLAQLEKAEREKMKNKIAKISKFGINTFINRQLIYDYPEQLFTDLGINSIEHADFEGVERLALVTGGEVVSTFDEPSKCKLGECDVIEEIMLGEQPFLKFSGCKAGEACTIVLRGATDQTLDEAERSLHDALSVLSQTTKETRTVLGGGCAEMVMSKAVDTEAQNIDGKKSLAVEAFARALRQLPTILADNAGFDSSELVSKLRSSIYNGISTSGLDLNNGTIADMRQLGIVESYKLKRAVVSSASEAAEVLLRVDNIIRARPRTANRQHM
B4: CCT4, subunit of bovine TRiC/CCT (bTRiC) (natural protein, Bos taurus, UniProt Q2T9X2 1-542, looked up)
chain: MPENVAPRTGPPAGAAGAAGGRGKSAYQDRDKPAQIRFSNISAAKAVADAIRTSLGPKGMDKMIQDGKGDVTITNDGATILKQMQVLHPAARMLVELSKAQDIEAGDGTTSVVIIAGSLLDSCTKLLQKGIHPTIISESFQKALEKGIEILTDMSRPEELSDRETLLNSAATSLNSKVVSQYSSLLSPMSVDAVMKVIDPATATSVDLRDIKIVKKLGGTIDDCELVEGLVLTQKVANSGITRVEKAKIGLIQFCLSAPKTDMDNQIVVSDYVQMDRVLREERAYILNLVKQIKKTGCNVLLIQKSILRDALSDLALHFLNKMKIMVVKDIEREDIEFICKTIGTKPVAHVDQFTADMLGSAELAEEVSLNGSGKLIKITGCASPGKTVTIVVRGSNKLVIEEAERSIHDALCVIRCLVKKRALIAGGGAPEIELALRLTEYSRTLSGMESYCIRAFADAMEVIPSTLAENAGLNPISTVTELRNRHAQGEKTTGINVRKGGISNILEEQVVQPLLVSVSALTLATETVRSILKIDDVVNTR
B5: CCT2, subunit of bovine TRiC/CCT (bTRiC) (natural protein, Bos taurus, UniProt Q3ZBH0 1-535, looked up)
chain: MASLSLAPVNIFKAGADEERAETARLSSFIGAIAIGDLVKSTLGPKGMDKILLSSGRDASLMVTNDGATILKNIGVDNPAAKVLVDMSRVQDDEVGDGTTSVTVLAAELLREAESLIAKKIHPQTIIAGWREATKAARQALLNSAVDHGSDEVKFRQDLMNIAGTTLSSKLLTHHKDHFTKLAVEAVLRLKGSGNLEAIHVIKKLGGSLADSYLDEGFLLDKKIGVNQPKRIENAKILIANTGMDTDKIKIFGSRVRVDSTAKVAEIEHAEKEKMKEKVERILKHGINCFINRQLIYNYPEQLFGAAGVMAIEHADFVGVERLALVTGGEIASTFDHPELVKLGSCKLIEEVMIGEDKLIHFSGVALGEACTIVLRGATQQILDEAERSLHDALCVLAQTVKDSRTVYGGGCSEMLMAHAVTQLASRTPGKEAVAMESYAKALRMLPTIIADNAGYDSADLVAQLRAAHSEGKTTAGLDMKEGTIGDMSVLGITESFQVKRQVLLSAAEAAEVILRVDNIIKAAPRKRVPDHHPC

Tests used:
Assay in all cases: cross-linking
[1] = target: CCT1, subunit of bovine TRiC/CCT (bTRiC) (Bos taurus, UniProt Q32L40 1-556)
[2] = target: T1, CCT8, subunit of bovine TRiC/CCT (bTRiC)
[3] = target: CCT4, subunit of yeast TRiC/CCT (yTRiC) (Saccharomyces cerevisiae, UniProt P39078 1-528)
[4] = target: B4

CCT1, subunit of bovine TRiC/CCT (bTRiC), sequence (Q32L40 whole entry): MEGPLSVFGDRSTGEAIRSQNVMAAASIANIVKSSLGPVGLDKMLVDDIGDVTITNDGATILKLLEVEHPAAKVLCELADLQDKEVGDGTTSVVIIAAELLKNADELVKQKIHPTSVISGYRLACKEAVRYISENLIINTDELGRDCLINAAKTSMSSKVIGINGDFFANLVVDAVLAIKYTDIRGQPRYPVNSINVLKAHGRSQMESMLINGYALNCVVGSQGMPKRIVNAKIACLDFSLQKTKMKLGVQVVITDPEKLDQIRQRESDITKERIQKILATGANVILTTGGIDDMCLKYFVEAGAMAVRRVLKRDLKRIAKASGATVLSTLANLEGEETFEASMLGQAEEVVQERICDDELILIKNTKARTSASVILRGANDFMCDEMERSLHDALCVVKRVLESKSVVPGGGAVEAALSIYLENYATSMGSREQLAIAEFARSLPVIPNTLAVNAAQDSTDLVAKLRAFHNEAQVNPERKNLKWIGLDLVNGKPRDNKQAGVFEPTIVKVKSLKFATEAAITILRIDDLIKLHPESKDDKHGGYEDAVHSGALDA
CCT4, subunit of yeast TRiC/CCT (yTRiC), sequence (P39078 whole entry): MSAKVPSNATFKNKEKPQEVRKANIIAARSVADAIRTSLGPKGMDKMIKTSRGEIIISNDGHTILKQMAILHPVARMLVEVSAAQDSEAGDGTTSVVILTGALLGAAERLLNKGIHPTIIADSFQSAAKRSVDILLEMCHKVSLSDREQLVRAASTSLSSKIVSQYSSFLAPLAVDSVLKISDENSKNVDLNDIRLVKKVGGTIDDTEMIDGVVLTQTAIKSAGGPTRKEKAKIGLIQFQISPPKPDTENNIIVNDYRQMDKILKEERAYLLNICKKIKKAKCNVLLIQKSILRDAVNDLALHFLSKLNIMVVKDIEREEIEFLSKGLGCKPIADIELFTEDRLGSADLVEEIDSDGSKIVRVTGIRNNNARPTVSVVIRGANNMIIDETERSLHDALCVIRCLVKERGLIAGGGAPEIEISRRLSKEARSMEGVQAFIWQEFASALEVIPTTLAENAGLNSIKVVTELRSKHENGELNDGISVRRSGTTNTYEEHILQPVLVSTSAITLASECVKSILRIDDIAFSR

Binder: B1
binding result [1]: binds

Binder: B2
binding result [2]: binds

Binder: B3
binding result [3]: binds

Binder: B4
binding result [1]: binds

Binder: B5
binding result [4]: binds
